T1: GST-GT-4 (Arabidopsis thaliana, UniProt Q9LU92 1-372)
T1 sequence: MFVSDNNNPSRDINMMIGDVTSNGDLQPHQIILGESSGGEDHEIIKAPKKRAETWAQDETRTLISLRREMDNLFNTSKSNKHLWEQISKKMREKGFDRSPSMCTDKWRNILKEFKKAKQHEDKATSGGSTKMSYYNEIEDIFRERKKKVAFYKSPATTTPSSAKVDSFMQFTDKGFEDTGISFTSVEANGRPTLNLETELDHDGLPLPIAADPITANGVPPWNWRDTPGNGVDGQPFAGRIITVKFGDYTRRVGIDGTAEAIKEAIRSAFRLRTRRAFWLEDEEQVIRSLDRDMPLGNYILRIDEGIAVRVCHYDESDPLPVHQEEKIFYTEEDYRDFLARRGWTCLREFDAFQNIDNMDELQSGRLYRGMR

B1: P1 (GT-3 box) (dsDNA)
DNA 1: CGGGGTAAATAGGTAAATAGGTAAATA
DNA 2: TATTTACCTATTTACCTATTTACCCCG
B2: P2 (GT-3b box) (dsDNA)
DNA 1: CGGAAAAATCGAAAAATCGAAAAATT
DNA 2: AATTTTTCGATTTTTCGATTTTTCCG
B3: P7 (MRE4) (dsDNA)
DNA 1: TATCTCACCGTTACCTCTCACCGTTACCTCTCACCTACCATT
DNA 2: AATGGTAGGTGAGAGGTAACGGTGAGAGGTAACGGTGAGATA
B4: Cor15A promoter 60 bp fragment with GT-3b box (dsDNA)
DNA 1: TTTCTTTAAGGAAATACATCAGAGAGAAAAATTATTACGAAACGATTCTATTACAAGTAA
DNA 2: TTACTTGTAATAGAATCGTTTCGTAATAATTTTTCTCTCTGATGTATTTCCTTAAAGAAA

Columns and labels:
GST-GT-4 [1] = target: T1, GST-GT-4; assay: EMSA; unlabeled competitor reduces band; Probes annealed in 50 mM NaCl (70 C 5 min, then room temperature); EMSA binding buffer, pH and temperature not given (as in ref. 57); conditions: protein: recombinant; tags: N-terminal GST (pGEX6p-1); label: digoxigenin; annealed complementary oligos
GST-GT-4 [2] = target: T1, GST-GT-4; assay: EMSA; Probes annealed in 50 mM NaCl (70 C 5 min, then room temperature); EMSA binding buffer, pH and temperature not given (as in ref. 57); conditions: protein: recombinant; tags: N-terminal GST (pGEX6p-1); label: digoxigenin

Row | Binder | binding result (GST-GT-4 [1]) | binding result (GST-GT-4 [2])
1 | B1 | binds | 
2 | B2 | binds | 
3 | B3 | binds | 
4 | B4 |  | binds
